For the assay, the target named is T1, His-Miro2(220–592) (UniProt Q8IXI1 220-592).
T1 construct: Mitochondrial Rho GTPase 2 (Miro2), amino acids 220–592, in pET-32a; source: E. coli BL21, purified
As to the kind of experiment: pull-down; GST pull-down of recombinant GST-PS2 fragments with recombinant His-Miro2 fragments; bound material eluted with SDS sample buffer, SDS-PAGE and Western blot (Fig. 5C, D). The following applies: both partners purified.

The source of these data is paper PMC11249618, “Presenilin2 D439A Mutation Induces Dysfunction of Mitochondrial Fusion/Fission Dynamics and Abnormal Regulation of GTPase Activity” (Molecular Neurobiology, 2023).

T1 sequence (Q8IXI1 220-592): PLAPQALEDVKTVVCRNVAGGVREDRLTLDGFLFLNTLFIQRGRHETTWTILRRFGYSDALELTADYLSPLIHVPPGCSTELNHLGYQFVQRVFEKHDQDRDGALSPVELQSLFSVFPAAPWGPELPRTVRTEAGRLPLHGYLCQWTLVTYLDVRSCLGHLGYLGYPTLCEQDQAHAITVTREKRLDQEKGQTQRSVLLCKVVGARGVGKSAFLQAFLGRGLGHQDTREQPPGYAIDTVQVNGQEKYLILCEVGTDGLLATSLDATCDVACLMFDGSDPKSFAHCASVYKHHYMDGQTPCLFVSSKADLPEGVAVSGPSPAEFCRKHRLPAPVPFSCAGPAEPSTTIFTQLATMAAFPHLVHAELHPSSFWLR

B1: GST-PS2(271–361) (domain or fragment)
chain: not shown
notes: source: E. coli BL21, purified
Regarding B1, the binding result was “binds”.
